Columns and labels:
Assay in all cases: EMSA
Nab2;Tbp = target: T1, Nab2;Tbp (Saccharomyces cerevisiae;Saccharomyces …, UniProt P32505;P13393 1-525;1-240, |)
T1 sequence 1: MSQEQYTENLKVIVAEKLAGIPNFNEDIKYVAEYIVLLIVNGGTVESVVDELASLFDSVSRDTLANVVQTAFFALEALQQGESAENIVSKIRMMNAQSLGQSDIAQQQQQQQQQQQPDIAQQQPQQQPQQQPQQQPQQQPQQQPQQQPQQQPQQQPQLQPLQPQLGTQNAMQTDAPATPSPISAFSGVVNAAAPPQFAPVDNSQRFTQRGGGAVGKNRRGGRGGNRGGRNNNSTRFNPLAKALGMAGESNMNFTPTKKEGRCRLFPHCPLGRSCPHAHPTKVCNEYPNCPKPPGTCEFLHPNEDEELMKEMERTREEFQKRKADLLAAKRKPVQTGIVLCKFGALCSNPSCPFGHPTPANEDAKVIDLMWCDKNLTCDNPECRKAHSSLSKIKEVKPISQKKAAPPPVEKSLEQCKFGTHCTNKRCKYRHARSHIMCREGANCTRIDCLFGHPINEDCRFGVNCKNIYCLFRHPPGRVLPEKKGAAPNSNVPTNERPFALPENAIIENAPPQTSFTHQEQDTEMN
T1 sequence 2: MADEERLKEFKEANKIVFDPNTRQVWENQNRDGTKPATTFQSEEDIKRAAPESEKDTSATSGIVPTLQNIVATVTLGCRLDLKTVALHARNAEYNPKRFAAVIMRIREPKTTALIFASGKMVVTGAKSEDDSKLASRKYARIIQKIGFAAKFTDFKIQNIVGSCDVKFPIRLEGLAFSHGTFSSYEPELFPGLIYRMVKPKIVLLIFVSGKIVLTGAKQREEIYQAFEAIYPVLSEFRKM

Nab2;Tbp;Brf1;Bdp1 = Nab2;Tbp;Brf1;Bdp1 (Saccharomyces cerevisiae;Saccharomyces …, UniProt P32505;P13393;P29056;P46678 1-525;1-240;1-596;1-594, |||)
Sequence of Nab2;Tbp;Brf1;Bdp1 (P46678 whole entry, one chain of several): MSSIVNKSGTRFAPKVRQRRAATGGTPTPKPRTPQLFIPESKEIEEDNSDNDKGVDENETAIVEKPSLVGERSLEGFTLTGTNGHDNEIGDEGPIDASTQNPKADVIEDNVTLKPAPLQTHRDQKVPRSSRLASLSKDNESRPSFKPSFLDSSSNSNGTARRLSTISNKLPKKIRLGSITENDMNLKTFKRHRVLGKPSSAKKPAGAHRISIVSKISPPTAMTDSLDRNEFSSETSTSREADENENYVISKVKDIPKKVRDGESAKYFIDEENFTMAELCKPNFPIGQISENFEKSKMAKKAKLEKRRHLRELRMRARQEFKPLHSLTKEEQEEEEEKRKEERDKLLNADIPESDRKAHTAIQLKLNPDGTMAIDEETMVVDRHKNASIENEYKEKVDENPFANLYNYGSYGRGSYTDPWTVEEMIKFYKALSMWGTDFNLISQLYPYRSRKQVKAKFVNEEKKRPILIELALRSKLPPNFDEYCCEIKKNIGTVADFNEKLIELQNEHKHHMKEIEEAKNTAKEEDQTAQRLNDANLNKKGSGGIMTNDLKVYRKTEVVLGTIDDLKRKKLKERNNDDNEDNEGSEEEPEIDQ

Nab2;Tbp;Brf1 = target: T2, Nab2;Tbp;Brf1 (Saccharomyces cerevisiae;Saccharomyces …, UniProt P32505;P13393;P29056 1-525;1-240;1-596, ||)
T2 sequence 1: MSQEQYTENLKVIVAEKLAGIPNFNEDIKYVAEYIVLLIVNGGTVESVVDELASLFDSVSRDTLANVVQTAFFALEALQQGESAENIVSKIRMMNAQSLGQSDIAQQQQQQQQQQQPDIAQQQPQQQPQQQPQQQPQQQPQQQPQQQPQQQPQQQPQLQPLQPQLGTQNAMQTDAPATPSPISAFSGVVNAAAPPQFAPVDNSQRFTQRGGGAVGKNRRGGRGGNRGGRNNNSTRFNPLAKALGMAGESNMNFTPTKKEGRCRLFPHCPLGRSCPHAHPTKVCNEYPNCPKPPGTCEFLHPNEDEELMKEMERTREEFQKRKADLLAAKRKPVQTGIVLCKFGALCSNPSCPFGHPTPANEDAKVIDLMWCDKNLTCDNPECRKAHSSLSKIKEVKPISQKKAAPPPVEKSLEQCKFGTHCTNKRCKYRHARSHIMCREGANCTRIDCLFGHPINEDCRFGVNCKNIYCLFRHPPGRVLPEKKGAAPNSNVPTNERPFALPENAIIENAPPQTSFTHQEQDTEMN
T2 sequence 2: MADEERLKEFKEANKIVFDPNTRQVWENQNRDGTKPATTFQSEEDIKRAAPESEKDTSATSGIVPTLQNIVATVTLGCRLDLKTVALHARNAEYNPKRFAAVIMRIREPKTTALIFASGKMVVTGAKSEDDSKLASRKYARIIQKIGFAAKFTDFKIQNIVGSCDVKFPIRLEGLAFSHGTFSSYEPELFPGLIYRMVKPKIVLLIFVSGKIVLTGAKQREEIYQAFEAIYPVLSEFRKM
T2 sequence 3: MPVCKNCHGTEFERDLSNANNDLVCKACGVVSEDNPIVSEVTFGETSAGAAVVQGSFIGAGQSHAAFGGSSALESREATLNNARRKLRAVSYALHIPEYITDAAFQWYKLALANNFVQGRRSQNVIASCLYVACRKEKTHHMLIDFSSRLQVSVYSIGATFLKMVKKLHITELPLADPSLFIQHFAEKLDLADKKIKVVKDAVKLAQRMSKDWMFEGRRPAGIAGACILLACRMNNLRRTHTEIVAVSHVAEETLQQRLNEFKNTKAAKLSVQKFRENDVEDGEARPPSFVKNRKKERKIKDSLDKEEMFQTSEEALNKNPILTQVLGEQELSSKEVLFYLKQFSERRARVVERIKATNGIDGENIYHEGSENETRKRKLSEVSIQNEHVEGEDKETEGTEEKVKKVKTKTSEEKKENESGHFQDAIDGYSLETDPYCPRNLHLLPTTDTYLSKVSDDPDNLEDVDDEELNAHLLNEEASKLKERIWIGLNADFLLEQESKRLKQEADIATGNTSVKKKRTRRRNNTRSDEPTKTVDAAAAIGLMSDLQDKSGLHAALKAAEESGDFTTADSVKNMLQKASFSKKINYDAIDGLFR

Measured: binding result

B1: TA-30-B6 (dsDNA)
DNA 1: GCTGAAATCTCTTTTTCAATTGCTCCGGTGTATAAAGCCGCGGTCCCTTACTCTTTCTTCAACAATTAAATACTC
DNA 2: GAGTATTTAATTGTTGAAGAAAGAGTAAGGGACCGCCCCTTTATTGACCGGAGCAATTGAAAAAGAGATTTCAGC
binds: all assays above
